± gives the standard deviation.
Assay: protein stability index of a GFP-peptide fusion (GPS, HEK-293T) (PSI 1-6); higher = more stable
[1] = treatment: DMSO, c terminus: a fixed tail appended
[2] = treatment: MLN4924 1 uM, 8 h, c terminus: a fixed tail appended
[3] = treatment: DMSO, c terminus: native
[4] = treatment: MLN4924 1 uM, 8 h, c terminus: native
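Also: 24-mer peptide tiles fused after GFP, lentivirally expressed, FACS-sorted into six equal bins by GFP/DsRed ratio, decoded by Illumina sequencing, PSI is the read-weighted mean bin number.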

Sequence | protein stability index [1] | protein stability index [2] | protein stability index [3] | protein stability index [4]
SGNFERCIRLWKYALDMQQSNLEP [FEM1A] | 2.12 ± 0.12 | 2.38 ± 0.48 |  | 
CYKGHLEMVRFLLEAGADQEHKTD [ANKRD17] | 2.91 ± 0.13 | 3.02 ± 0.32 |  | 
TRKHAHHCHKRRTRSCSSASSRSQ [CLK3] | 4.65 ± 0.2 | 4.82 ± 0.19 |  | 
RDGGLCVNDLAVGLRRLGLHRTEG [SLC25A25] | 3.12 ± 0.16 | 2.99 ± 0.14 |  | 
STAKKEDINLSVRKLLNRHNIVFG [TRIP13] | 2.5 ± 0.27 | 2.61 ± 0.24 |  | 
TAEMARVLTDSNHVPLQRLSLLVH [FBXO33] | 2.83 ± 0.39 | 2.79 ± 0.096 |  | 
HIIHVWEETGSRFHNCLIQLYCEK [VPS39] | 2.44 ± 0.4 | 2.37 ± 0.36 |  | 
GASDNSIIMWDIGGRKGRTLLLQG [WDFY1] | 2.15 ± 0.36 | 2.19 ± 0.35 |  | 
VSSEDSFVCQCFEGYILREDGKTC [MATN2] | 3.04 ± 0.26 | 3.08 ± 0.57 |  | 
NLAFGRRCEELEDARYKLHHHLHK [TEKT4] | 3.2 ± 0.22 | 3.2 ± 0.16 |  | 
KVHMKDVMSALWVSGLDSSYLREQ [GAN] | 2.1 ± 0.47 | 2.23 ± 0.26 |  | 
EAGGRFVAFSGEGQSLRKKGRKP [UFD1] |  |  | 2.75 ± 0.78 | 3.29 ± 0.79
DDLRINLWHLAITDRSFNIVDIKP [PPP2R2C] | 2.19 ± 0.2 | 2.17 ± 0.19 |  | 
SAMLLVTLGKVLKVIVVMRSLFID [MED27] | 2.9 ± 0.45 | 2.85 ± 0.73 |  | 
RGPPHGWPKLCPCLRSGIGSSQAL [MYCL] | 2.21 ± 0.65 | 2.26 ± 0.5 |  | 
LIFSPCSDCEEEEEEEEEEGSGHS [WEE1] | 4.88 ± 0.19 | 5.03 ± 0.13 |  | 
WLAVDGLVSPSNNSKEDAFSGTDW [ATF4] | 3.76 ± 0.19 | 3.76 ± 0.27 |  | 
ADWTQGLPWRFEELLTCSHWPSFF [TEX19] | 2.54 ± 0.67 | 2.6 ± 0.58 |  | 
PIPVVFVLRHFHLLSDGSNTLSVS [SLC6A17] | 2.83 ± 0.81 | 2.84 ± 0.47 |  | 
KLSARDHQKLEREARICRLLKHPN [CAMK2D] | 3.38 ± 0.31 | 3.8 ± 0.39 |  | 
PQQPVMFAQPMMRPPFGAAAVPGT [SNAP91] | 3.75 ± 0.16 | 3.76 ± 0.3 |  | 
RSGRLILWEAPPLGAGGGSLLPGA [NEK8] | 2.84 ± 0.43 | 3.11 ± 0.3 |  | 
MVPVENTEGPSLLNQKGTAVETEG [SLC2A12] | 5.62 ± 0.19 | 5.11 ± 0.3 |  | 

Sequence | protein stability index [1] | protein stability index [2] | protein stability index [3] | protein stability index [4]
VQLHNGTKYKKFPHWLDKWMLTRK [STEAP1] | 2.36 ± 0.044 | 2.19 ± 0.096 |  | 
NFGFDLLVTYTNRYIIFKRNTLNQ [GMCL1] | 2.1 ± 0.15 | 2.47 ± 0.56 |  | 
HPPSHWPLIKATVGLIRNLALCPA [CTNNB1] | 2.65 ± 0.53 | 2.81 ± 0.88 |  | 
SSLVWLFSQLYLYSFISLFIYMVL [MCOLN1] | 3.02 ± 0.19 | 3.03 ± 0.68 |  | 
VTLARQAGEVVCEAIKNEMNVMLK [IMPA1] | 2.44 ± 0.4 | 2.44 ± 0.45 |  | 
IFEETLNILIYETPRGPDPALLEA [KCTD13] | 2.47 ± 0.51 | 2.63 ± 0.28 |  | 
MLDFLSERPWIKRMIFKLFSQETV [APMAP] | 1.98 ± 0.3 | 1.82 ± 0.26 |  | 
TEEEDRIICEAHKVLGNRWAEIAK [MYBL2] | 3.85 ± 0.1 | 3.92 ± 0.46 |  | 
RDGALLGCSLTADGLPLHFFIQTV [MYORG] | 2.35 ± 0.31 | 2.36 ± 0.52 |  | 
SIRLPLDAPLPGSKAKPKPPKQAQ [TBC1D10A] | 4.36 ± 0.09 | 4.72 ± 0.11 |  | 
TIMSLASLLFVVMFIPETKGCSLE [SLC2A12] | 3.37 ± 0.21 | 3.33 ± 0.83 |  | 
EEEKEPLAVDSWWLDPGHTAVAQA [SERTAD1] | 4.8 ± 0.27 | 4.88 ± 0.23 |  | 
SPHRKRSDDSDEDEPCAISGKWTF [DLC1] | 4.47 ± 0.22 | 4.51 ± 0.13 |  | 
PLQLLREMRQALQALLKENRLLQE [CBY2] | 2.93 ± 0.28 | 3.4 ± 0.51 |  | 
SLKDQERVAEVSRVRVELQEQNGR [LRRC45] | 5.17 ± 0.45 | 4.91 ± 0.26 |  | 
PLHLAAQRGHYRVARILIDLCSDV [RIPK4] | 2.42 ± 0.44 | 2.31 ± 0.19 |  | 
SVRRTRSKIGFGILLSKEPDGVWA [SMAD6] | 2.18 ± 0.12 | 2.3 ± 0.12 |  | 
LTEDMYAQDSIELLTTSGIQFKKH [CNOT7] | 3.93 ± 0.23 | 4.09 ± 0.32 |  | 
QEKARQLLGRLKPSHTSRTLILS [MYBL2] |  |  | 2.12 ± 0.29 | 2.32 ± 0.042
SPEKEEQYIAQFTSQFLSLQCLQA [PRAME] | 2.84 ± 0.41 | 2.44 ± 0.37 |  | 
LDDGEIDEIRWKYHSDTTPKIIES [IQUB] | 4.25 ± 0.23 | 3.98 ± 0.24 |  | 
DHVDLSLSCTLVPRSGEQAEGSPG [CDKN1A] | 4.91 ± 0.17 | 5.08 ± 0.23 |  | 
LSLFVQKLGNLMSLDISGHMILEN [ZER1] | 3.24 ± 0.06 | 3.42 ± 0.48 |  | 

Sequence | protein stability index [1] | protein stability index [2] | protein stability index [3] | protein stability index [4]
TNALIGGPMPMSMPNVMTGTMGMA [CLINT1] | 3 ± 0.16 | 3.03 ± 0.18 |  | 
AGPQSQVLCGVVMDRSLVQDAPLS [ADD1] | 3.62 ± 0.2 | 3.59 ± 0.11 |  | 
VVTAEAVAVLKGEQEKEAQHKDQT [MAP2] | 5.49 ± 0.12 | 5.28 ± 0.21 |  | 
RDIQDENQLLVADVKRLGKQNARF [STX11] | 4.21 ± 0.32 | 4.44 ± 0.18 |  | 
NSLEMTPAVRQRVIEEAKTAFLLN [HMOX1] | 3.67 ± 0.2 | 3.63 ± 0.31 |  | 
NQEILLPGGITSHQLLGLFPSTSY [TNXB] | 2.58 ± 0.092 | 2.53 ± 0.27 |  | 
APHTPPLPRRPRKGSSELGFPRVA [RNF208] | 4.17 ± 0.21 | 4.06 ± 0.13 |  | 
EAQRASFLQNAVLAYVQASPVRTL [LRRC45] | 2.41 ± 0.29 | 2.3 ± 0.26 |  | 
ILTGCKNMLFQQNKDGIGEICLWG [ACSBG2] | 3.01 ± 1.4 | 2.92 ± 0.44 |  | 
YQQLCIYWTKYYDFKNPIIEKYLR [OAS1] | 2.92 ± 0.53 | 2.46 ± 0.7 |  | 
VDSPKNFNIAGTVVKYRRPMDVYE [ADAMTSL2] | 3.44 ± 0.36 | 3.49 ± 0.54 |  | 
ATLTQVSVEYGYRPGATAVPTPLT [FCHO1] | 2.39 ± 0.36 | 2.47 ± 0.26 |  | 
SVEAGGSVHFDGETIEGAPPLWAA [FEM1A] | 4.09 ± 0.15 | 4.12 ± 0.48 |  | 
RHLTSRHQEAEMAQNAVRLHYGLP [CTNNB1] | 3.71 ± 0.14 | 3.73 ± 0.25 |  | 
VISPMYQLHKPLAEGTPRSNHSAQ [IKZF1] | 3.76 ± 0.32 | 4.06 ± 0.31 |  | 
KKSRSPASAEAPGDSGERSEGEAM [ZNF511] | 5.53 ± 0.39 | 5.57 ± 0.1 |  | 
FISVFSNLLESKADGIEVSYNACG [ZER1] | 2.3 ± 0.49 | 2.17 ± 0.17 |  | 
GISAKVFGATTNYGKDIVKACSLL [ZBED1] | 2.33 ± 0.4 | 2.26 ± 0.35 |  | 
FSGTPPPPVLSFRLVHTTAIEHFQ [FCHO1] | 2.32 ± 0.24 | 2.28 ± 0.19 |  | 
KVIYLDDDVIVQGDIQELYDTTLA [GLT8D2] | 2.65 ± 0.36 | 2.94 ± 0.29 |  | 
EMHTALMEACMDGHVEVARLLLDS [ANKRD17] | 2.38 ± 0.22 | 2.55 ± 0.28 |  | 
TLEELLPPNTRVLRVLPNLPCVVQ [PYCR3] | 2.28 ± 0.28 | 2.1 ± 0.38 |  | 
AQEVSPCGPPSLGAVLALVAIFIM [MFSD9] | 2 ± 0.15 | 1.93 ± 0.39 |  | 

Sequence | protein stability index [1] | protein stability index [2] | protein stability index [3] | protein stability index [4]
SNISRPRDNPMCLKCDLQERLLCP [M1AP] | 2.87 ± 0.095 | 3.05 ± 0.26 |  | 
CAVTFFTILLSYGVILHSLKTQSL [OR4A15] | 3.59 ± 0.13 | 3.62 ± 0.69 |  | 
MRDQYMRAGEGFIICYSITDRRSF [RIT1] | 2.37 ± 0.82 | 2.11 ± 0.38 |  | 
ILKSQKERQCALRVFKARIYTNRY [FBXO39] | 2.41 ± 0.35 | 2.46 ± 0.29 |  | 
ASAGKRRCFWLGMEGLETAEGSNS [SDE2] | 3.62 ± 0.26 | 3.84 ± 0.45 |  | 
ASVTIQARAEQEEEFISNTLFKKI [CCDC6] | 3.54 ± 0.14 | 3.81 ± 0.12 |  | 
VVVCQCGLSIPSHSSELTEQKLRA [RPAIN] | 2.1 ± 0.43 | 2.36 ± 0.38 |  | 
IEDDIRPEKQKRKPGLRRSPIKKV [MYBL2] | 5.01 ± 0.25 | 4.83 ± 0.23 |  | 
SLNRACHQQNKIKDLQKEQKTLQV [CEP70] | 3.53 ± 0.66 | 3.45 ± 0.45 |  | 
SGCSSELKNRMEYALNMLLQRCN [PLK2] |  |  | 3.57 ± 0.15 | 3.77 ± 0.12
TTTVCLVAAALRYLQIFATRRSCI [FAM189A2] | 2.98 ± 0.42 | 2.89 ± 0.25 |  | 
FFYDCSNNPISEHFHPTVIGESMY [TENT5C] | 2.16 ± 0.43 | 2.26 ± 0.16 |  | 
PRLQQLLKTLEEGLEGLEDAPPVE [FANCE] | 4.41 ± 0.16 | 4.34 ± 0.3 |  | 
VFDALESDHEMREEEKLKAEEIRI [KCNK9] | 5.27 ± 0.21 | 5.23 ± 0.17 |  | 
QDELRNRSVKVICLGSLASKLSRK [FAN1] | 2.96 ± 0.32 | 3.17 ± 0.36 |  | 
QHIDNITQIEDATEKLKANAESSK [TRIM14] | 5.46 ± 0.065 | 5.33 ± 0.39 |  | 
SISRGRHARTHPQTALLESSCENK [MATN2] | 4.87 ± 0.22 | 4.88 ± 0.27 |  | 
SPGSPVGEGTGSPPKWQIGEQEFE [ADD1] | 5.35 ± 0.14 | 5.35 ± 0.25 |  | 
KGISSHSRSSLMPLRNDVDKRGET [SLC2A12] | 5 ± 0.39 | 5.06 ± 0.22 |  | 
FYMRTNPFYPEVELNFISVFWPQL [MMP1] | 3.11 ± 0.38 | 2.89 ± 0.25 |  | 

From the supplement of paper PMC10567573
